In PMC5680255:

Experiments:
[1] = target: Photosystem II subunit S (PsbS) of Physcomitrella patens, recombinant, detergent-refolded (Physcomitrella patens); experiment: DOSY NMR; PsbS in FC-12, pH 5.0; 1H HN intensities, double-exponential fit
[2] = target: Photosystem II subunit S (PsbS) of Physcomitrella patens, recombinant, detergent-refolded (Physcomitrella patens); experiment: DOSY NMR; PsbS in FC-12, pH 7.5; 1H HN intensities, double-exponential fit
[3] = target: Photosystem II subunit S (PsbS) of Physcomitrella patens, recombinant, detergent-refolded (Physcomitrella patens); experiment: SEC; Superdex 200 5/150 GL; 100 mM sodium phosphate pH 7.5 with 1% OG; detection at 260 nm
[4] = target: Photosystem II subunit S (PsbS) of Physcomitrella patens, recombinant, detergent-refolded (Physcomitrella patens); experiment: SEC; Superdex 200 5/150 GL; 100 mM sodium phosphate pH 7.5 with 0.05% FC12; detection at 260 nm
[5] = target: Photosystem II subunit S (PsbS) of Physcomitrella patens, recombinant, detergent-refolded (Physcomitrella patens); experiment: SDS-PAGE without boiling; PsbS refolded in FC-12, pH 5.0; samples taken day 0 to day 90 after refolding; not boiled before loading
[6] = target: Photosystem II subunit S (PsbS) of Physcomitrella patens, recombinant, detergent-refolded (Physcomitrella patens); experiment: SDS-PAGE without boiling; PsbS refolded in FC-12, pH 7.5; samples taken day 0 to day 90 after refolding; not boiled before loading

stoichiometry N [1]: 2
stoichiometry N [2]: 2
stoichiometry N [3]: 2
stoichiometry N [4]: 2
stoichiometry N [5]: 2
stoichiometry N [6]: 2
Substance: Photosystem II subunit S (PsbS) of Physcomitrella patens, recombinant, detergent-refolded (natural protein)
